Measurements as given in US9994881B2, “Functionalized carboxylic acids and alcohols by reverse fatty acid oxidation in engineered microbes” (William Marsh Rice University, priority 2011, dated 2018).
Marks after values point to notes of the source that are not given here.

B1: TesB: E. coli thioesterase II (protein, UniProt P0AGG2 2-286, looked up)
Acyl-CoA thioesterase 2: SQALKNLLTLLNLEKIEEGLFRGQSEDLGLRQVFGGQVVGQALYAAKETVPEERLVHSFHSYFLRPGDSKKPIIYDVETLRDGNSFSARRVAAIQNGKPIFYMTASFQAPEAGFEHQKTMPSAPAPDGLPSETQIAQSLAHLLPPVLKDKFICDRPLEVRPVEFHNPLKGHVAEPHRQVWIRANGSVPDDLRVHQYLLGYASDLNFLPVALQPHGIGFLEPGIQIATIDHSMWFHRPFNLNEWLLYSVESTSASSARGFVRGEFYTQDGVLVASTVQEGVMRNHN
B2: TesA: E. coli multifunctional acyl-CoA thioesterase I and protease I and lysophospholipase L1 (protein, UniProt P0ADA1 27-208, looked up)
Thioesterase 1/protease …: ADTLLILGDSLSAGYRMSASAAWPALLNDKWQSKTSVVNASISGDTSQQGLARLPALLKQHQPRWVLVELGGNDGLRGFQPQQTEQTLRQILQDVKAANAEPLLMQIRLPANYGRRYNEAFSAIYPKLAKEFDVPLLPFFMEEVYLKPQWMQDDGIHPNRDAQPFIADWMAKQLQPLVNHDS
B3: YdiI: E. coli Acyl-CoA thioesterase (protein, UniProt P77781 1-136, looked up)
1,4-dihydroxy-2-naphthoyl-CoA …: MIWKRKITLEALNAMGEGNMVGFLDIRFEHIGDDTLEATMPVDSRTKQPFGLLHGGASVVLAESIGSVAGYLCTEGEQKVVGLEINANHVRSAREGRVRGVCKPLHLGSRHQVWQIEIFDEKGRLCCSSRLTTAIL
B4: FadM: E. coli long-chain acyl-CoA thioesterase (protein, UniProt P77712 1-132, looked up)
Long-chain acyl-CoA …: MQTQIKVRGYHLDVYQHVNNARYLEFLEEARWDGLENSDSFQWMTAHNIAFVVVNININYRRPAVLSDLLTITSQLQQLNGKSGILSQVITLEPEGQVVADALITFVCIDLKTQKALALEGELREKLEQMVK
B5: YbgC: E. coli Acyl-CoA thioesterase (protein, UniProt P0A8Z3 1-134, looked up)
Acyl-CoA thioester hydrolase …: MNTTLFRWPVRVYYEDTDAGGVVYHASYVAFYERARTEMLRHHHFSQQALMAERVAFVVRKMTVEYYAPARLDDMLEIQTEITSMRGTSLVFTQRIVNAENTLLNEAEVLVVCVDPLKMKPRALPKSIVAEFKQ
B6: YciA: E. coli acyl-CoA thioesterase (protein, UniProt P0A8Z0 1-132, looked up)
Acyl-CoA thioester hydrolase …: MSTTHNVPQGDLVLRTLAMPADTNANGDIFGGWLMSQMDIGGAILAKEIAHGRVVTVRVEGMTFLRPVAVGDVVCCYARCVQKGTTSVSINIEVWVKKVASEPIGQRYKATEALFKYVAVDPEGKPRALPVE
B7: FadE: E. coli acyl-CoA dehydrogenase, a medium-long-chain fatty acyl-CoA dehydrogenase (protein, UniProt Q47146 1-814, looked up)
Acyl-coenzyme A dehydrogenase: MMILSILATVVLLGALFYHRVSLFISSLILLAWTAALGVAGLWSAWVLVPLAIILVPFNFAPMRKSMISAPVFRGFRKVMPPMSRTEKEAIDAGTTWWEGDLFQGKPDWKKLHNYPQPRLTAEEQAFLDGPVEEACRMANDFQITHELADLPPELWAYLKEHRFFAMIIKKEYGGLEFSAYAQSRVLQKLSGVSGILAITVGVPNSLGPGELLQHYGTDEQKDHYLPRLARGQEIPCFALTSPEAGSDAGAIPDTGIVCMGEWQGQQVLGMRLTWNKRYITLAPIATVLGLAFKLSDPEKLLGGAEDLGITCALIPTTTPGVEIGRRHFPLNVPFQNGPTRGKDVFVPIDYIIGGPKMAGQGWRMLVECLSVGRGITLPSNSTGGVKSVALATGAYAHIRRQFKISIGKMEGIEEPLARIAGNAYVMDAAASLITYGIMLGEKPAVLSAIVKYHCTHRGQQSIIDAMDITGGKGIMLGQSNFLARAYQGAPIAITVEGANILTRSMMIFGQGAIRCHPYVLEEMEAAKNNDVNAFDKLLFKHIGHVGSNKVRSFWLGLTRGLTSSTPTGDATKRYYQHLNRLSANLALLSDVSMAVLGGSLKRRERISARLGDILSQLYLASAVLKRYDDEGRNEADLPLVHWGVQDALYQAEQAMDDLLQNFPNRVVAGLLNVVIFPTGRHYLAPSDKLDHKVAKILQVPNATRSRIGRGQYLTPSEHNPVGLLEEALVDVIAADPIHQRICKELGKNLPFTRLDELAHNALVKGLIDKDEAAILVKAEESRLRSINVDDFDPEELATKPVKLPEKVRKVEAA

Test: thioesterase activity (production of TNB at 412 nm)
Format: biochemical
Settings: crude cell extract; 200 μM substrate; expressed from pCA24N
From the text: (§1) For AtoB and thioesterase characterization assays, the pCA24N-gene (-gfp) plasmids from the ASKA collection^44 were used. For expression of E. gracilis TER for kinetic characterization, the egTER gene was cloned into pTrcHis2A using the In-Fusion protocol (Clontech Laboratories, Inc., Mountain View, Calif.) following PCR amplification from the aforementioned codon-optimized egTER containing plasmid with the primer pair of F1pTH6hisEgter and R1pTH6hisEgter (Supplementary Table S3).
(§2) Cultures for enzymatic assays were grown overnight in 100 mL of LB media at 37° C. in 250 mL baffled flasks (Wheaton Industries, Inc., Millville, N.J.) in E. coli BL21 (DE3) cells induced with either 1 mM IPTG (pCA24N, pTrcHis2A) or 1 mM Arabinose (pUCBB-pBAD) at an OD600˜0.6, or expressed constitutively (pUCBB-ntH6). Reactions were monitored on either a Synergy HT plate reader (BioTek Instruments, Inc., Winooski, Vt.) at 25° C. (for reactions monitored at 300 nm or higher) or in a Biomate 5 Spectrophotometer (Thermo Scientific, Waltham, Mass.) for reactions at 263 nm.
(§3) For specific activity assays (reported in μmol substrate/mg protein/min) these supernatant fractions were utilized and protein concentration was established using the Bradford Reagent (Thermo Scientific, Waltham, Mass.) using BSA as the protein standard. Linearity was established for each reaction and the background non-enzymatic rate was subtracted to establish the activity.
For kinetic characterization, an appropriate amount of enzyme was established by checking linear range near predicted KM values. Then, the rates were measured for a range of substrates in order to establish kcat and KM. In the cases of FadB for the crotonase reaction and FadA in the “forward” thiolase reaction coupled with HBD, substrate saturation could not be established, as such, the kcat/KM for the reaction was determined by dividing the linear slope of Velocity vs. [Substrate] by the amount of enzyme used in the assays. For reactions that could be saturated, Velocity vs. [Substrate] was fitted by the EnzKIN Matlab module (mathworks.com/matlabcentral/fileexchange/26653) to establish Vmax and KM.
(§4) Thioesterase activity was monitored by following the production of TNB at 412 nm ([…])^30. Reactions were carried out in the presence of 100 mM Tris pH 7.5, 200 mM KCl, […] DTNB and 200 μM of the ‘-CoA’ substrate in a volume of 200 μL at 25° C.

In order of falling “Specific activities of selected thioesterases on Acetoacetyl-CoA” value:
1. B6  0.672 ± 0.007 μmol/mg protein/min
2. B5  0.065 ± 0.002 μmol/mg protein/min
3. B1  0.056 ± 0.001 μmol/mg protein/min
4. B3  0.047 ± 0.001 μmol/mg protein/min
5. B2  0.044 ± 0.005 μmol/mg protein/min
6. B4  0.042 ± 0.004 μmol/mg protein/min

In order of rising “Specific activities of selected thioesterases on Acetyl-CoA” value:
1. B1  0.030 ± 0.001 μmol/mg protein/min
2. B4  0.0331 ± 0.0006 μmol/mg protein/min
3. B2  0.036 ± 0.002 μmol/mg protein/min
4. B3  0.036 ± 0.003 μmol/mg protein/min
5. B5  0.036 ± 0.002 μmol/mg protein/min
6. B6  0.222 ± 0.007 μmol/mg protein/min

In order of rising “Specific activities of selected thioesterases on Butyryl-CoA” value:
1. B4  0.027 ± 0.001 μmol/mg protein/min
2. B5  0.045 ± 0.007 μmol/mg protein/min
3. B2  0.049 ± 0.002 μmol/mg protein/min
4. B3  0.0917 ± 0.0007 μmol/mg protein/min
5. B1  0.101 ± 0.002 μmol/mg protein/min
6. B6  2.9 ± 0.2 μmol/mg protein/min

In order of rising “Specific activities of selected thioesterases on Crotonyl-CoA” value:
1. B4  0.0017 ± 0.0003 μmol/mg protein/min
2. B5  0.006 ± 0.001 μmol/mg protein/min
3. B2  0.007 ± 0.003 μmol/mg protein/min
4. B1  0.010 ± 0.001 μmol/mg protein/min
5. B3  0.078 ± 0.005 μmol/mg protein/min
6. B6  0.27 ± 0.03 μmol/mg protein/min

In order of falling “Specific activities of selected thioesterases on RS-3-Hydroxybutyryl-CoA” value:
1. B6  0.441 ± 0.009 μmol/mg protein/min
2. B1  0.032 ± 0.002 μmol/mg protein/min
3. B2  0.02 ± 0.01 μmol/mg protein/min
4. B5  0.016 ± 0.004 μmol/mg protein/min
5. B3  0.012 ± 0.002 μmol/mg protein/min
6. B4  0.009 ± 0.002 μmol/mg protein/min

Same assay, conditions: substrate Acetoacetyl-CoA; Table 1; expressed from pCA24N

In the case of B6, the “Specific Activity” value is reported as 0.672 ± 0.007^b μmol/mg/min.

Same assay, conditions: substrate Acetyl-CoA; Table 1; expressed from pCA24N

In the case of B6, the “Specific Activity” value is reported as 0.222 ± 0.007^b μmol/mg/min.

Same assay, conditions: substrate Butyryl-CoA; Table 1; expressed from pCA24N

With B6 the “Specific Activity” value was 2.9 ± 0.2^b μmol/mg/min.

Same assay, conditions: substrate Crotonyl-CoA; Table 1; expressed from pCA24N

With B6 the “Specific Activity” value was 0.27 ± 0.03^b μmol/mg/min.

Same assay, conditions: substrate RS-3-Hydroxybutyryl-CoA; Table 1; expressed from pCA24N

In the case of B6, the “Specific Activity” value is reported as 0.441 ± 0.009^b μmol/mg/min.

Test: Butyryl-CoA dehydrogenase activity utilizing ferricenium ion
Format: biochemical
Settings: purified enzyme
Procedure: Cells were lysed using Bacterial Protein Extraction Reagent (B-PER) (Thermo Scientific, Waltham, Mass.) as per the prescribed protocol in order to obtain the supernatant containing the active enzymes. FadE and YdiO were purified following previously established methods^45 using the same growth conditions mentioned above.
Cell pellets were resuspended in 40 mL of 50 mM potassium phosphate buffer pH 7.2 and broken by disruption EmulsiFlex-05 homogenizer (Avestin, Ottawa, ON). Disrupted cells were then spun for 90 min at 4° C. at 120,000×g in a Optima L-80XP Ultracentrifuge (Beckman-Coulter, Schaumburg, Ill.) to produce the supernatant used for assays.
as §3
For FadE and YdiO, Butyryl-CoA dehydrogenase activity was measured utilizing ferricenium ion^49. Reactions were performed in 50 mM potassium phosphate pH 7.2, 0.4 mM MgSO4, 200 μM ferrocenium hexafluorophosphate, and 200 μM Butyryl-CoA and monitored the formation of the reduced ferrocene ion at 300 nm (ε=4.3 mM^−1 cm^−1).

In the case of B7, the activity upon purification is reported as “no detectable activities”.

Same assay, conditions: substrate Butyryl-CoA; crude extract of cells; expressed from pCA24N

For B7, the “Specific Activity” value was 0.008 ± 0.001^b μmol/mg/min.

Test: thioesterase activity (production of TNB at 412 nm)
Format: biochemical
Settings: crude cell extract; 200 μM substrate; expressed from pCA24N
Remark: another data set of the same source
From the text: as §1, §2, §3, §4

In order of rising “Specific activities of selected thioesterases on Decanyl-CoA” value:
1. B4  0.034 ± 0.003 μmol/mg protein/min
2. B5  0.06 ± 0.02 μmol/mg protein/min
3. B3  0.18 ± 0.04 μmol/mg protein/min
4. B2  0.47 ± 0.04 μmol/mg protein/min
5. B1  0.6 ± 0.1 μmol/mg protein/min
6. B6  3.7 ± 0.3 μmol/mg protein/min
